In article PMC3074231 (Journal of neurochemistry, 2011):
Values joined by “and” are separate entries in the source; they are usually repeats but may differ in a detail not shown here. Equal entries are not always repeated.

B1: STEP61 Cys 65 to Ser (enzyme, UniProt P54830-1 1-541, looked up)
chain: MCCSERLLGLPQPVEMEAPDEAEGLPSKQKEMPPPPPPSPPSEPAQKLPPQGAGSHSLTVRSSLSLFAASQFLLACGVLWLSGHGHSWLQNTTDLISSSLTVLNHLGPVAWLGSGTWGIPSLLLVSLTVSLVIVTTLVWHLLKAPPEPPAPLPPEDRRQSVSRQPSFTYSEWMEEKVEDDFLDLDAVPETPVFDCVMDIKPETDPASLTVKSMGLQERRGSNVSLTLDMCTPGCNEEGFGYLVSPREESAHEYLLSASRVLRAEELHEKALDPFLLQAEFFEIPMNFVDPKEYDIPGLVRKNRYKTILPNPHSRVRLTSPDPEDPLSSYINANYIRGYSGEEKVYIATQGPIVSTVADFWRMVWQERTPIIVMITNIEEMNEKCTEYWPEEQVVHDGVEITVQKVIHTEDYRLRLISLRRGTEERSLKHYWFTSWPDQKTPDRAPPLLHLVREVEEAAQQEGPHCSPIIVHCSAGIGRTGCFIATSICCQQLRREGVVDILKTTCQLRQDRGGMIQTCEQYQFVHHAMSLYEKQLSLQSSE
B2: STEP61 Cys 76 to Ser (enzyme, UniProt P54830-1 1-541, looked up)
chain: MCCSERLLGLPQPVEMEAPDEAEGLPSKQKEMPPPPPPSPPSEPAQKLPPQGAGSHSLTVRSSLCLFAASQFLLASGVLWLSGHGHSWLQNTTDLISSSLTVLNHLGPVAWLGSGTWGIPSLLLVSLTVSLVIVTTLVWHLLKAPPEPPAPLPPEDRRQSVSRQPSFTYSEWMEEKVEDDFLDLDAVPETPVFDCVMDIKPETDPASLTVKSMGLQERRGSNVSLTLDMCTPGCNEEGFGYLVSPREESAHEYLLSASRVLRAEELHEKALDPFLLQAEFFEIPMNFVDPKEYDIPGLVRKNRYKTILPNPHSRVRLTSPDPEDPLSSYINANYIRGYSGEEKVYIATQGPIVSTVADFWRMVWQERTPIIVMITNIEEMNEKCTEYWPEEQVVHDGVEITVQKVIHTEDYRLRLISLRRGTEERSLKHYWFTSWPDQKTPDRAPPLLHLVREVEEAAQQEGPHCSPIIVHCSAGIGRTGCFIATSICCQQLRREGVVDILKTTCQLRQDRGGMIQTCEQYQFVHHAMSLYEKQLSLQSSE
B3: STEP61 C65S/C76S (enzyme, UniProt P54830-1 1-541, looked up)
chain: MCCSERLLGLPQPVEMEAPDEAEGLPSKQKEMPPPPPPSPPSEPAQKLPPQGAGSHSLTVRSSLSLFAASQFLLASGVLWLSGHGHSWLQNTTDLISSSLTVLNHLGPVAWLGSGTWGIPSLLLVSLTVSLVIVTTLVWHLLKAPPEPPAPLPPEDRRQSVSRQPSFTYSEWMEEKVEDDFLDLDAVPETPVFDCVMDIKPETDPASLTVKSMGLQERRGSNVSLTLDMCTPGCNEEGFGYLVSPREESAHEYLLSASRVLRAEELHEKALDPFLLQAEFFEIPMNFVDPKEYDIPGLVRKNRYKTILPNPHSRVRLTSPDPEDPLSSYINANYIRGYSGEEKVYIATQGPIVSTVADFWRMVWQERTPIIVMITNIEEMNEKCTEYWPEEQVVHDGVEITVQKVIHTEDYRLRLISLRRGTEERSLKHYWFTSWPDQKTPDRAPPLLHLVREVEEAAQQEGPHCSPIIVHCSAGIGRTGCFIATSICCQQLRREGVVDILKTTCQLRQDRGGMIQTCEQYQFVHHAMSLYEKQLSLQSSE
B4: STEP61 (STriatal Enriched Phosphatase, membrane associated isoform), wild type (enzyme, UniProt P54830-1 1-541, looked up)
chain: MCCSERLLGLPQPVEMEAPDEAEGLPSKQKEMPPPPPPSPPSEPAQKLPPQGAGSHSLTVRSSLCLFAASQFLLACGVLWLSGHGHSWLQNTTDLISSSLTVLNHLGPVAWLGSGTWGIPSLLLVSLTVSLVIVTTLVWHLLKAPPEPPAPLPPEDRRQSVSRQPSFTYSEWMEEKVEDDFLDLDAVPETPVFDCVMDIKPETDPASLTVKSMGLQERRGSNVSLTLDMCTPGCNEEGFGYLVSPREESAHEYLLSASRVLRAEELHEKALDPFLLQAEFFEIPMNFVDPKEYDIPGLVRKNRYKTILPNPHSRVRLTSPDPEDPLSSYINANYIRGYSGEEKVYIATQGPIVSTVADFWRMVWQERTPIIVMITNIEEMNEKCTEYWPEEQVVHDGVEITVQKVIHTEDYRLRLISLRRGTEERSLKHYWFTSWPDQKTPDRAPPLLHLVREVEEAAQQEGPHCSPIIVHCSAGIGRTGCFIATSICCQQLRREGVVDILKTTCQLRQDRGGMIQTCEQYQFVHHAMSLYEKQLSLQSSE

Legend:
[1] = biological target: STEP46 (cytosolic isoform of STEP), wild type
[2] = biological target: the molecule itself; test: co-IP
[3] = biological target: the molecule itself; test: co-IP; remark: listed apart in the source

Row | Molecule | phosphatase activity of STEP46 in the presence of H2O2, % of control [1] | co-immunoprecipitated STEP61-myc, % of WT control [2] | co-immunoprecipitated STEP61-myc, % of untreated WT control (10 mM H2O2, 5 min) [3]
1 | STEP46 (cytosolic isoform of STEP), wild type (enzyme) | 40.3 % of control |  | 
2 | B1 |  | 38.4 % of control | 
3 | B2 |  | 35.2 % of control | 
4 | B3 |  | 13.5 % of control and 16.6 % of WT control | 39.4 % of WT control
5 | B4 |  |  | 232 % of WT control
